Measurements from PMC8395316 (2021).

Molecular target: Spike-RBD RBD (Severe acute respiratory syndrome …, UniProt P0DTC2)
Experiment: ELISA

B1: Platelet Factor 4 (protein)
chain: SQVRPRHITSLEVIKAGPHCPTAQLIATLKNGRKICLDLQAPLYKKIIKKLLES
  Kd: ~180 nM
